Assay results reported in publication PMC3478282, “Probing the Putative Active Site of YjdL: An Unusual Proton-Coupled Oligopeptide Transporter from E. coli” (PLoS ONE, 2012).
Where a chain is given by its changes, count along the chain named. Where two headings read alike, the source gives them in different places. Residues, ends and D or L forms follow the SMILES beside them.

What was measured:
[1] = molecular target: T1, WT-YjdL (Escherichia coli, UniProt P39276); assay: cell-based; format: cell-based, E. coli; settings: for IC50: IC50 (inhibition of β-Ala-Lys(AMCA) uptake), WT-YjdL a
T1 construct: expressed in transfected cells; host or cells: E. coli BL21(DE3)pLysS, pTTQ18-yjdL, IPTG-induced
T1 sequence (P39276 1-485): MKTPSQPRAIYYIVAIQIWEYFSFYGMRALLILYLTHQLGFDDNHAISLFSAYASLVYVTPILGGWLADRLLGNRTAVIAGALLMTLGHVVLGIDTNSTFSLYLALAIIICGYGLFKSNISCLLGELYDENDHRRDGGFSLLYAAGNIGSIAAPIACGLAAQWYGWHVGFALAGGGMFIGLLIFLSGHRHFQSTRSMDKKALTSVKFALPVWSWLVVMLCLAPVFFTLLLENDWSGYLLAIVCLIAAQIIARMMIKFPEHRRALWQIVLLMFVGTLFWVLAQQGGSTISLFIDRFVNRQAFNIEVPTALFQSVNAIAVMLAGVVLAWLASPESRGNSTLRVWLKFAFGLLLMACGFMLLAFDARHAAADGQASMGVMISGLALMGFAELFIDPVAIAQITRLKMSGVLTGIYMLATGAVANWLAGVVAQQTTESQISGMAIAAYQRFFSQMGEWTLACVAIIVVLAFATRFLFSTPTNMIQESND
Method: (§1) Plasmids were transformed into E. coli BL21(DE3)pLysS cells by heat shock and transformants were selected on agar plates containing 100 µg/mL ampicillin and 34 µg/mL chloramphenicol. Single transformants were inoculated into 2 mL LB-media with antibiotics as above and grown overnight. The cultures were diluted 1∶50 in 5 mL LB-media with antibiotics as above, and at an OD600 of 0.5–0.8 protein expression was induced by the addition of 1 mM isopropyl β-D-1-thiogalactopyranoside (IPTG). […]
(§2) Uptake assays were performed as previously described, [20]. In a final assay volume of 100 µL; 0.2 mM β-Ala-Lys-N-7-amino-4-methylcoumarin-3-acetic acid (β-Ala-Lys(AMCA), Biotrend) (10 µL) and various concentrations of ligands (purchased from Bachem or Sigma-Aldrich) or uptake buffer (50 µL) were incubated with bacterial cell suspension (OD600 = 10, 40 µL) at 37°C. After 5 min, the uptake was stopped by addition of 500 µL ice-cold uptake buffer followed by immediate centrifugation and washing twice in ice-cold uptake buffer. Finally the cell pellet was resuspended in 100 µL uptake buffer, and the uptake was quantified by fluorescence measurements (excitation at 340 nm and emission at 460 nm) on a Safire 2 fluorimeter. Non-specific uptake was measured as described above on IPTG-induced E. coli BL21(DE3)pLysS cells harboring the empty pTTQ18 vector. All uptake assay experiments were reproduced at least three times independently and data analyses were performed using GraphPad Prism ver. 5.

[2] = molecular target: T2, YjdL Tyr25Phe (Escherichia coli, UniProt P39276, Y25F); assay: β-Ala-Lys(AMCA) uptake and inhibition assay, YjdL Tyr25Phe; format: cell-based, E. coli; settings: 0.2 mM β-Ala-Lys(AMCA), 5 min incubation, pH 6.5; ±SEM, n≥3
T2 construct: expressed in transfected cells; host or cells: E. coli BL21(DE3)pLysS, pTTQ18-yjdL mutant (QuikChange)
T2 sequence (P39276 1-485 Y25F): T1 sequence (P39276 1-485) with Y25F
Method: (§3) Plasmids were transformed into E. coli BL21(DE3)pLysS cells by heat shock and transformants were selected on agar plates containing 100 µg/mL ampicillin and 34 µg/mL chloramphenicol. Single transformants were inoculated into 2 mL LB-media with antibiotics as above and grown overnight. The cultures were diluted 1∶50 in 5 mL LB-media with antibiotics as above, and at an OD600 of 0.5–0.8 protein expression was induced by the addition of 1 mM isopropyl β-D-1-thiogalactopyranoside (IPTG). The cells were harvested after three hours of induction by centrifugation and resuspended in uptake buffer (50 mM MES pH 6.5, 140 mM NaCl, 5.4 mM KCl, 1.8 mM CaCl2, 0.8 mM MgSO4, and 5 mM glucose).
as §2

[3] = molecular target: T3, YjdL Ala281Phe (Escherichia coli, UniProt P39276, A281F); assay: β-Ala-Lys(AMCA) uptake and inhibition assay, YjdL Ala281Phe; format: cell-based, E. coli; settings: for IC50: 0.2 mM β-Ala-Lys(AMCA), 5 min incubation, pH 6.5, ±SEM, n≥3
T3 construct: host or cells: E. coli BL21(DE3)pLysS
T3 sequence (P39276 1-485 A281F): T1 sequence (P39276 1-485) with A281F
Method: as §3, §2

[4] = molecular target: YjdL from E. coli, wild type (E. coli) (UniProt P39276)
[5] = molecular target: YjdL Tyr21Phe (E. coli) (UniProt P39276)
[6] = molecular target: YjdL Tyr25Phe (E. coli) (UniProt P39276)
[7] = molecular target: YjdL-Ala281Phe (E. coli) (UniProt P39276)
[8] = molecular target: YjdL Tyr113Phe (E. coli) (UniProt P39276)
[9] = molecular target: YjdL from E. coli, wild type (E. coli) (UniProt P39276); remark: listed apart in the source
[10] = molecular target: YjdL-Trp278Phe (E. coli) (UniProt P39276)
[11] = molecular target: YjdL Tyr58Phe (E. coli) (UniProt P39276)
[12] = molecular target: T4, WT-YdgR (Escherichia coli, UniProt P77304); assay: cell-based; format: cell-based, E. coli; settings: 25 mM Tris-HCl, 50 mM MOPS pH 7.4, 0.2 mM β-Ala-Lys(AMCA), 5 min
T4 construct: expressed in transfected cells; host or cells: E. coli BL21(DE3)pLysS, pTTQ18-ydgR, IPTG-induced
T4 sequence (P77304 1-500): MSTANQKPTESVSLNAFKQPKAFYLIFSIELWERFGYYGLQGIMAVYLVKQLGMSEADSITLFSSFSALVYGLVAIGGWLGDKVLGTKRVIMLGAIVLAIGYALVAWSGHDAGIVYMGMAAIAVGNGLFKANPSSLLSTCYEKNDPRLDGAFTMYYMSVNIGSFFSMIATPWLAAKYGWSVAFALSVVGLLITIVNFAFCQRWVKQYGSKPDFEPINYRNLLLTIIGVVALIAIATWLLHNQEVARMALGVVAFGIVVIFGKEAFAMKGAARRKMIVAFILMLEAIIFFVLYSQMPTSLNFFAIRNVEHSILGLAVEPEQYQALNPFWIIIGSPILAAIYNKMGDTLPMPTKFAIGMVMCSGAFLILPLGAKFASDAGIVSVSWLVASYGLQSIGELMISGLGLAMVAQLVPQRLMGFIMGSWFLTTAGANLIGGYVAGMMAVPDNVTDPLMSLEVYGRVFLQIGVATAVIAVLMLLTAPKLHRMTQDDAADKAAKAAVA
Method: as §1, §2

[13] = molecular target: YjdL Tyr25Phe (E. coli) (UniProt P39276); remark: listed apart in the source
[14] = molecular target: YjdL-Ala281Phe (E. coli) (UniProt P39276); remark: listed apart in the source
[15] = molecular target: YjdL from E. coli, wild type (E. coli) (UniProt P39276); remark: listed apart in the source
[16] = molecular target: YdgR-Tyr38Phe (E. coli MG1655) (UniProt P77304)
[17] = molecular target: YdgR-Tyr292Ala (E. coli MG1655) (UniProt P77304)
[18] = molecular target: YdgR-Tyr71Phe (E. coli MG1655) (UniProt P77304)
[19] = molecular target: YdgR from E. coli, wild type (E. coli MG1655) (UniProt P77304)
[20] = molecular target: YdgR-Tyr292Phe (E. coli MG1655) (UniProt P77304)

Compound	β-Ala-Lys(AMCA) uptake (0.5 mM) left with 50 mM competitor, E. coli cells, pH 6.5 [4] [%]	IC50 of inhibition of β-Ala-Lys(AMCA) uptake into E. coli cells (0.2 mM substrate, 5 min, pH 6.5) [5] [mM]	IC50 of inhibition of β-Ala-Lys(AMCA) uptake into E. coli cells (0.2 mM substrate, 5 min, pH 6.5) [6] [mM]	IC50 of inhibition of β-Ala-Lys(AMCA) uptake into E. coli cells (0.2 mM substrate, 5 min, pH 6.5) [7] [mM]	IC50 of inhibition of β-Ala-Lys(AMCA) uptake into E. coli cells (0.2 mM substrate, 5 min, pH 6.5) [8] [mM]	IC50 of inhibition of β-Ala-Lys(AMCA) uptake into E. coli cells (0.2 mM substrate, 5 min, pH 6.5) [9] [mM]	IC50 of inhibition of β-Ala-Lys(AMCA) uptake into E. coli cells (0.5 mM substrate, 15 min, pH 6.5) [9] [mM]	IC50 of inhibition of β-Ala-Lys(AMCA) uptake into E. coli cells (0.2 mM substrate, 5 min, pH 6.5) [10] [mM]	IC50 of inhibition of β-Ala-Lys(AMCA) uptake into E. coli cells (0.5 mM substrate, 15 min, pH 6.5) [11] [mM]	IC50 of inhibition of β-Ala-Lys(AMCA) uptake into E. coli cells (0.2 mM substrate, 5 min, pH 6.5) [13] [mM]	IC50 of inhibition of β-Ala-Lys(AMCA) uptake into E. coli cells (0.2 mM substrate, 5 min, pH 6.5) [14] [mM]	IC50 of inhibition of β-Ala-Lys(AMCA) uptake into E. coli cells (0.2 mM substrate, 5 min, pH 6.5) [15] [mM]	increase of IC50 compared to the Ala-Lys value, WT-YjdL [1]	IC50 [1] [µM]	IC50 [2] [µM]	IC50 [3] [µM]	also measured
NCCCC[C@H](NC(=O)[C@@H](N)Cc1c[nH]c2ccccc12)C(=O)O [Trp-Lys] (H-Trp-Lys-OH)	–	–	–	–	–	–	–	–	–	–	–	–	approximately 2 fold	600 ± 70	580 ± 60	90 ± 10	–
CSCC[C@H](N)C(=O)N[C@@H](CCCCN)C(=O)O [Met-Lys] (H-Met-Lys-OH)	–	–	–	–	–	–	–	–	–	–	–	–	approximately 2 fold	530 ± 30	610 ± 20	170 ± 10	–
Tris	–	–	–	–	–	–	–	–	–	–	–	–	–	–	–	–	inhibition of β-Ala-Lys(AMCA) uptake, WT-YdgR [12]: no significant inhibition; inhibition of β-Ala-Lys(AMCA) uptake, WT-YjdL ([1]; 25 mM Tris-HCl, 50 mM MOPS pH 7.4, 0.2 mM β-Ala-Lys(AMCA), 5 min): weak
NCCCC[C@H](NC(=O)[C@@H](N)Cc1ccc(O)cc1)C(=O)O [Tyr-Lys] (H-Tyr-Lys-OH)	–	–	–	–	–	–	–	–	–	–	–	–	approximately 2 fold	550 ± 40	670 ± 80	30	decrease of IC50 compared to Ala-Lys, Ala281Phe [3]: approximately 10 fold
Tyr-Lys (peptide)	–	–	–	–	–	–	–	–	–	0.67	0.03	0.55	–	–	–	–	–

Second part, led by results:

β-Ala-Lys(AMCA) uptake (0.5 mM) left with 50 mM competitor, E. coli cells, pH 6.5 [4] [%]	IC50 of inhibition of β-Ala-Lys(AMCA) uptake into E. coli cells (0.2 mM substrate, 5 min, pH 6.5) [5] [mM]	IC50 of inhibition of β-Ala-Lys(AMCA) uptake into E. coli cells (0.2 mM substrate, 5 min, pH 6.5) [6] [mM]	IC50 of inhibition of β-Ala-Lys(AMCA) uptake into E. coli cells (0.2 mM substrate, 5 min, pH 6.5) [7] [mM]	IC50 of inhibition of β-Ala-Lys(AMCA) uptake into E. coli cells (0.2 mM substrate, 5 min, pH 6.5) [8] [mM]	IC50 of inhibition of β-Ala-Lys(AMCA) uptake into E. coli cells (0.2 mM substrate, 5 min, pH 6.5) [9] [mM]	IC50 of inhibition of β-Ala-Lys(AMCA) uptake into E. coli cells (0.5 mM substrate, 15 min, pH 6.5) [9] [mM]	IC50 of inhibition of β-Ala-Lys(AMCA) uptake into E. coli cells (0.2 mM substrate, 5 min, pH 6.5) [10] [mM]	IC50 of inhibition of β-Ala-Lys(AMCA) uptake into E. coli cells (0.5 mM substrate, 15 min, pH 6.5) [11] [mM]	IC50 of inhibition of β-Ala-Lys(AMCA) uptake into E. coli cells (0.2 mM substrate, 5 min, pH 6.5) [13] [mM]	IC50 of inhibition of β-Ala-Lys(AMCA) uptake into E. coli cells (0.2 mM substrate, 5 min, pH 6.5) [14] [mM]	IC50 of inhibition of β-Ala-Lys(AMCA) uptake into E. coli cells (0.2 mM substrate, 5 min, pH 6.5) [15] [mM]	Compound	increase of IC50 compared to the Ala-Lys value, WT-YjdL [1]	IC50 [1] [µM]	IC50 [2] [µM]	IC50 [3] [µM]	also measured
< 10	4.7	33.7	33.2	1.3	2.4	2.4	2.8	24.1	–	–	–	Tyr-Ala (peptide)	–	–	–	–	–
–	–	–	–	–	–	–	–	–	0.61	0.17	0.53	Met-Lys (peptide)	–	–	–	–	–
< 10	4.5	> 50	> 50	1.9	2.8	2.2	9.9	28.1	–	–	–	Ala-Ala (peptide)	–	–	–	–	IC50 of inhibition of β-Ala-Lys(AMCA) uptake into E. coli cells (0.5 mM substrate, 15 min, pH 6.5) [16]: 0.92 mM; IC50 of inhibition of β-Ala-Lys(AMCA) uptake into E. coli cells (0.2 mM substrate, 5 min, pH 6.5) [17]: 0.59 mM; IC50 of inhibition of β-Ala-Lys(AMCA) uptake into E. coli cells (0.2 mM substrate, 5 min, pH 6.5) [18]: 0.37 mM; IC50 of inhibition of β-Ala-Lys(AMCA) uptake into E. coli cells (0.2 mM substrate, 5 min, pH 6.5) [19]: 0.39 mM; IC50 of inhibition of β-Ala-Lys(AMCA) uptake into E. coli cells (0.5 mM substrate, 15 min, pH 6.5) [19]: 1.04 mM; IC50 of inhibition of β-Ala-Lys(AMCA) uptake into E. coli cells (0.2 mM substrate, 5 min, pH 6.5) [20]: 0.15 mM
–	–	–	–	–	–	–	–	–	0.58	0.09	0.6	Trp-Lys (peptide)	–	–	–	–	–
< 10	1.1	36.1	21.7	1.1	0.6	1.9	0.9	2.5	–	–	–	Ala-Gln (peptide)	–	–	–	–	–
